Reference: PMC8228355, “SERS-Based Aptasensor for Rapid Quantitative Detection of SARS-CoV-2”

B1: Biotin-RBD-1C (structured_DNA)
DNA: CAGCACCGACCTTGTGCTTTGGGAGTGCTGGTCCAAGGGCGTTAATGGACA

Biological target: RBD of SARS-CoV-2 spike protein (SARS-CoV-2, UniProt P0DTC2 319-541)
Assay: BLI; ka ([…]; kd ([…]; RBD 80-1200 nM; […]; BLI on streptavidin sensors, buffer and temperature not stated; […]
Settings: protein: commercial; label: 5'-biotin

Binder	Kd [nM]
B1	13
TTTGGGAGTGCTGGTCCAAGGGCGTTAATGGACA (structured_DNA) [Biotin-RBD-1C-sh]	330
